Experimental data reported in paper PMC9674263 (Proceedings of the National Academy of Sciences of the …, 2022).

Molecular target: the molecule itself
Assay: native gel or EMSA

B1: endogenous PLOD2 of HCC38 cells (enzyme, human (endogenous in HCC38), UniProt O00469 26-737, looked up)
chain: ADSEKPSSIPTDKLLVITVATKESDGFHRFMQSAKYFNYTVKVLGQGEEWRGGDGINSIGGGQKVRLMKEVMEHYADQDDLVVMFTECFDVIFAGGPEEVLKKFQKANHKVVFAADGILWPDKRLADKYPVVHIGKRYLNSGGFIGYAPYVNRIVQQWNLQDNDDDQLFYTKVYIDPLKREAINITLDHKCKIFQTLNGAVDEVVLKFENGKARAKNTFYETLPVAINGNGPTKILLNYFGNYVPNSWTQDNGCTLCEFDTVDLSAVDVHPNVSIGVFIEQPTPFLPRFLDILLTLDYPKEALKLFIHNKEVYHEKDIKVFFDKAKHEIKTIKIVGPEENLSQAEARNMGMDFCRQDEKCDYYFSVDADVVLTNPRTLKILIEQNRKIIAPLVTRHGKLWSNFWGALSPDGYYARSEDYVDIVQGNRVGVWNVPYMANVYLIKGKTLRSEMNERNYFVRDKLDPDMALCRNAREMGVFMYISNRHEFGRLLSTANYNTSHYNNDLWQIFENPVDWKEKYINRDYSKIFTENIVEQPCPDVFWFPIFSEKACDELVEEMEHYGKWSGGKHHDSRISGGYENVPTDDIHMKQVDLENVWLHFIREFIAPVTLKVFAGYYTKGFALLNFVVKYSPERQRSLRPHHDASTFTINIALNNVGEDFQGGGCKFLRYNCSIESPRKGWSFMHPGRLTHLHEGLPVKNGTRYIAVSFIDP
stoichiometry N: 2
